Experiments:
[1] = target: T1, 158P1D7 protein expressed on the cell surface (human, UniProt Q9H5Y7 27-841); assay: binding to 158P1D7 expressing cells; method not given
T1 construct: No signal peptide limits are stated; also called SLITRK6; SLITRK-6
T1 sequence: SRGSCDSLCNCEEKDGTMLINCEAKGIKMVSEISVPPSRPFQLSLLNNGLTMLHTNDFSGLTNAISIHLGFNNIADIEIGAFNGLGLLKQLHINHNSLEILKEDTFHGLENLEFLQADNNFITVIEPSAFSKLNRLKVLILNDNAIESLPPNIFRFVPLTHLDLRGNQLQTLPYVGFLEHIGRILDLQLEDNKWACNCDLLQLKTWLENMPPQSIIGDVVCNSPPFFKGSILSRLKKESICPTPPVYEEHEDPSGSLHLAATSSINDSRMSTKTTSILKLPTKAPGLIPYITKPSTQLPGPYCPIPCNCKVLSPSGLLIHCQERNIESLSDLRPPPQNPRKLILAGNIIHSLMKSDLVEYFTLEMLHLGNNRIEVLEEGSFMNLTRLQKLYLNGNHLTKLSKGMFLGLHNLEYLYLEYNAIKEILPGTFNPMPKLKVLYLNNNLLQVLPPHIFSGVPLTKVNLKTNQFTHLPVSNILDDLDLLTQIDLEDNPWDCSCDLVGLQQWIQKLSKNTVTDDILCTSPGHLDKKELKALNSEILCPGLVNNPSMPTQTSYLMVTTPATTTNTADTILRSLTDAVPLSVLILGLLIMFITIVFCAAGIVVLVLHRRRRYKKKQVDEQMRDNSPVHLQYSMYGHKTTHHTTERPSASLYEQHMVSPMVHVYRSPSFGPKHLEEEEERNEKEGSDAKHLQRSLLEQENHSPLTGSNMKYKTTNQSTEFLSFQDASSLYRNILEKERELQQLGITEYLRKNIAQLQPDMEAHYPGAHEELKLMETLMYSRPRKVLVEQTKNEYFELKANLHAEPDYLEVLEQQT

[2] = target: T1, 158P1D7 protein expressed on the cell …; assay: FACS saturation binding on SW780 cells, one site binding fit (Graphpad Prism)

B1: 158P1D7 MAb Ha15-10ac12 (antibody, human IgG2, kappa, V domains shown)
VH: QVQLVESGGGVVQPGRSLRLSCAASGFTFSSYGMHWVRQAPGKGLEWVAVIWYDGSNQYYADSVKGRFTISRDNSKNTLFLQMHSLRAEDTAVYYCARGLTSGRYGMDVWGQGTTVTVSS
VL: DIVMTQSPLSLPVTPGEPASISCRSSQSLLLSHGFNYLDWYLQKPGQSPQLLIYLGSSRASGVPDRFSGSGSGTDFTLKISRVEAEDVGLYYCMQPLQIPWTFGQGTKVEIKR
notes: Fully human IgG2 kappa antibody from XenoMouse; It was tested both as material purified from the hybridoma and as recombinant material from CHO-K1SV cells; also called Ha15-10ac12 MAb
[1]
  binding result: binds

B2: Ha15-10ac12vcMMAE (other)
heavy: QVQLVESGGGVVQPGRSLRLSCAASGFTFSSYGMHWVRQAPGKGLEWVAVIWYDGSNQYYADSVKGRFTISRDNSKNTLFLQMHSLRAEDTAVYYCARGLTSGRYGMDVWGQGTTVTVSSASTKGPSVFPLAPCSRSTSESTAALGCLVKDYFPEPVTVSWNSGALTSGVHTFPAVLQSSGLYSLSSVVTVPSSNFGTQTYTCNVDHKPSNTKVDKTVERKCCVECPPCPAPPVAGPSVFLFPPKPKDTLMISRTPEVTCVVVDVSHEDPEVQFNWYVDGVEVHNAKTKPREEQFNSTFRVVSVLTVVHQDWLNGKEYKCKVSNKGLPAPIEKTISKTKGQPREPQVYTLPPSREEMTKNQVSLTCLVKGFYPSDIAVEWESNGQPENNYKTTPPMLDSDGSFFLYSKLTVDKSRWQQGNVFSCSVMHEALHNHYTQKSLSLSPGK
light: DIVMTQSPLSLPVTPGEPASISCRSSQSLLLSHGFNYLDWYLQKPGQSPQLLIYLGSSRASGVPDRFSGSGSGTDFTLKISRVEAEDVGLYYCMQPLQIPWTFGQGTKVEIKRTVAAPSVFIFPPSDEQLKSGTASVVCLLNNFYPREAKVQWKVDNALQSGNSQESVTEQDSKDSTYSLSSTLTLSKADYEKHKVYACEVTHQGLSSPVTKSFNRGEC
modifications: vcMMAE (Val-Cit linker with monomethyl auristatin E) on cysteine sulfur atoms after partial reduction of disulfides with TCEP; positions not given; vcMMAE (Val-Cit linker with monomethyl auristatin E) on cysteine sulfur atoms after partial reduction of disulfides with TCEP; positions not given; preferred p between 3.5 and 3.7 drugs per antibody
notes: also called 158P1D7 ADC; Ha15ac12vcMMAE
[2]
  Kd: 5 pM

From patent USRE47103 (AGENSYS, dated 2018)
